Source: patent publication US20240158489A1

How the values were obtained:
Conditions in all cases: bispecific antibody
[1] = target: huANG2 (UniProt O15123); test: -; FIG. 2A
[2] = target: huVEGF (UniProt P15692); test: -; FIG. 2B
[3] = target: huANG2 (UniProt O15123); test: -; FIG. 2B

Sequence of huANG2 (O15123 19-496): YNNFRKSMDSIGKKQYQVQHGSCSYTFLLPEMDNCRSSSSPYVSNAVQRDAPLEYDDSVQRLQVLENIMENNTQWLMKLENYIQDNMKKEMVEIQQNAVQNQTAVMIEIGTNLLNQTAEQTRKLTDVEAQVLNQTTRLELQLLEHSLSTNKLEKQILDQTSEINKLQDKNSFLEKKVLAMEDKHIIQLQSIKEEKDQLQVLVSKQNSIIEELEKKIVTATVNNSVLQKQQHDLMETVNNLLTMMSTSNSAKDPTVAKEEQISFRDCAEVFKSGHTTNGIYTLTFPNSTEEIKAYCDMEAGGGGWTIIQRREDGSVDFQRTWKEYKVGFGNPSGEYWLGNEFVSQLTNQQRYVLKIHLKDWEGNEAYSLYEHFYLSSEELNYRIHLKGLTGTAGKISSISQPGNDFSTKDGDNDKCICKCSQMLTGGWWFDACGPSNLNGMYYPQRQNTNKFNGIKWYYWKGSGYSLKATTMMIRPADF
Sequence of huVEGF (P15692 other isoform, or with tags, fused parts or gaps): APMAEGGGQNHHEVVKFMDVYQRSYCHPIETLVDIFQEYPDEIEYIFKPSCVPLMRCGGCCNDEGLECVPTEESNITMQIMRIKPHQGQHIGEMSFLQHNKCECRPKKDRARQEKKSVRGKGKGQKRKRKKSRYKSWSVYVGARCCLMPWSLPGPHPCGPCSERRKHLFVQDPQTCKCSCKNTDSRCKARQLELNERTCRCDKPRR

- Kd [1]: 32.1 nM
- Kd [2]: 1.37 nM
- Kd [3]: 32.1 nM
Substance: anti-ANG-2×VEGF bispecific antibody ABP201
